Test results: the RNAGym collection of RNA variant scans (doi:10.1093/nar/gkz1192)

B1: CPEB3 Ribozyme (parent)
chain: UAACAGGGGGCCACAGCAGAAGCGUUCACGUCGCAGCCCCUGUCAGAUUCUGGUGAAUCUGCGAAUUCUGCUGUAUAUCUC

Variants of: B1
Test: self-cleavage, relative activity (ratio to wild type); higher = more cleavage; in vitro, sequencing
In short: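 After error-prone PCR and barcoding, CPEB3 ribozyme mutant libraries were transcribed with T7 RNA polymerase at 37°C for 5 hours, then given 15 min with DNase I before an EDTA stop, and they cleaved during both steps. Reverse transcription with template switching preceded Illumina sequencing. Relative activity divides a variant's cleaved/total read fraction by the unmutated ribozyme's. At least 5 reads were required per variant, and three batches were averaged.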

Point of comparison: UAACAGGGGGCCACAGCAGAAGCGUUCACGUCGCAGCCGCUGUCAGAUUCUGGUGAAUCUGUGAAUUCUGCUGUAUAUCUC [C39G C62U], self-cleavage 0.08. Against it:
- UAACAGGGGGCCACAGCAGAAGCGUUCACGUCGCAGCCGCUGUCAGGUUCUGGUGAAUCUGCGAAUUCUGCUGUAUAUCUC [C39G A47G] — higher, 0.13
- UAACAGGGGGCCACAGCAGAAGCGUUCACGUCGCAGCCUCUGUCAGUUUCUGGUGAAUCUGCGAAUUCUGCUGUAUAUCUC [C39U A47U] — higher, 0.42
- UAACAGGGGGCCACAGCAGAAGCGUUCACGUCGCAGCCUCUGUCAGGUUCUGGUGAAUCUGCGAAUUCUGCUGUAUAUCUC [C39U A47G] — higher, 0.48
- UAACAGGGGGCCACAGCAGAAGCGUUCACGUCGCAGCCGCUGUCAGAUUGUGGUGAAUCUGCGAAUUCUGCUGUAUAUCUC [C39G C50G] — higher, 0.1
- UAACAGGGGGCCACAGCAGAAGCGUUCACGUCGCAGCCGCUGUCAGAUUCUGGUGAAUCAGCGAAUUCUGCUGUAUAUCUC [C39G U60A] — higher, 0.25
- UAACAGGGGGCCACAGCAGAAGCGUUCACGUCGCAGCCGCUGUCAGAAUCUGGUGAAUCUGCGAAUUCUGCUGUAUAUCUC [C39G U48A] — higher, 0.15
- UAACAGGGGGCCACAGCAGAAGCGUUCACGUCGCAGCCACUGUCAGAUUCUGGUGAAUCUGCGAAUUCUGCUGCAUAUCUC [C39A U74C] — higher, 0.49
- UAACAGGGGGCCACAGCAGAAGCGUUCACGUCGCAGCCACUGUCAGAUUCUGGUGAAUCUGCGAAUUCUGCUGAAUAUCUC [C39A U74A] — higher, 0.53
- UAACAGGGGGCCACAGCAGAAGCGUUCACGUCGCAGCCGCUGUCAGAUUCUGGUGAAUCUGCGAAUUCUGCCGUAUAUCUC [C39G U72C] — higher, 0.3
- UAACAGGGGGCCACAGCAGAAGCGUUCACGUCGCAGCCACUGUCAGAUUCUGGUGAAUCUGCGAAUUCUGCUGUAUACCUC [C39A U78C] — higher, 0.26
- UAACAGGGGGCCACAGCAGAAGCGUUCACGUCGCAGCCACUGUCAGAUUCUGGUGAAUCUGCGAAUUCUGCUGUAUAACUC [C39A U78A] — higher, 0.43
- UAACAGGGGGCCACAGCAGAAGCGUUCACGUCGCAGCCGCUGUCAGAUUCUGGUGAAUCUGCGAGUUCUGCUGUAUAUCUC [C39G A65G] — higher, 0.17
- UAACAGGGGGCCACAGCAGAAGCGUUCACGUCGCAGCCGCUGUCAGAUCCUGGUGAAUCUGCGAAUUCUGCUGUAUAUCUC [C39G U49C] — higher, 0.12
- UAACAGGGGGCCACAGCAGAAGCGUUCACGUCGCAGCCACUGUCAGAUUCUGGUGAAUCUGCGAAUUCUGCUGUAUAUCAC [C39A U80A] — higher, 0.3
- UAACAGGGGGCCACAGCAGAAGCGUUCACGUCGCAGCCACUGUCAGAUUCUGGUGAAUCUGCGAAUUCUGCUGUAUAUCCC [C39A U80C] — higher, 0.26
- UAACAGGGGGCCACAGCAGAAGCGUUCACGUCGCAGCCACUGUCAGAUUCUGGUGAAUCUGCGAAUUCUGCAGUAUAUCUC [C39A U72A] — higher, 0.35
- UAACAGGGGGCCACAGCAGAAGCGUUCACGUCGCAGCCACUGUCAGAUUCUGGUGAAUCUGCGAAUUCUGCCGUAUAUCUC [C39A U72C] — higher, 0.32
- UAACAGGGGGCCACAGCAGAAGCGUUCACGUCGCAGCCACUGUCAGAUUCUGGUGAAUCUGCGAAUUCGGCUGUAUAUCUC [C39A U69G] — higher, 0.14
- UAACAGGGGGCCACAGCAGAAGCGUUCACGUCGCAGCCUCUGUCAGAUUCUGGUGUAUCUGCGAAUUCUGCUGUAUAUCUC [C39U A56U] — higher, 0.32
- UAACAGGGGGCCACAGCAGAAGCGUUCACGUCGCAGCCUCUGUCAGAUUCUGGUGGAUCUGCGAAUUCUGCUGUAUAUCUC [C39U A56G] — higher, 0.48
- UAACAGGGGGCCACAGCAGAAGCGUUCACGUCGCAGCCGCAGUCAGAUUCUGGUGAAUCUGCGAAUUCUGCUGUAUAUCUC [C39G U41A] — higher, 0.21
- UAACAGGGGGCCACAGCAGAAGCGUUCACGUCGCAGCCGCGGUCAGAUUCUGGUGAAUCUGCGAAUUCUGCUGUAUAUCUC [C39G U41G] — higher, 0.13
- UAACAGGGGGCCACAGCAGAAGCGUUCACGUCGCAGCCUCUGUCAGAUUCUGGUGAAUCUGCGAAUUCUGCUGUAUAUCUC [C39U] — higher, 0.91
- UAACAGGGGGCCACAGCAGAAGCGUUCACGUCGCAGCCGCUGUCAGAUUCUGGUGAAUCUGCGAAUUCUGCUGUAUAUCUC [C39G] — higher, 0.3
- UAACAGGGGGCCACAGCAGAAGCGUUCACGUCGCAGCCGCUGUCGGAUUCUGGUGAAUCUGCGAAUUCUGCUGUAUAUCUC [C39G A45G] — higher, 0.29
- UAACAGGGGGCCACAGCAGAAGCGUUCACGUCGCAGCCUCUGUCUGAUUCUGGUGAAUCUGCGAAUUCUGCUGUAUAUCUC [C39U A45U] — higher, 0.26
- UAACAGGGGGCCACAGCAGAAGCGUUCACGUCGCAGCCUCUGUCGGAUUCUGGUGAAUCUGCGAAUUCUGCUGUAUAUCUC [C39U A45G] — higher, 0.69
- UAACAGGGGGCCACAGCAGAAGCGUUCACGUCGCAGCCGCUGUCAGAUUCUGGUGAAUCUGCGCAUUCUGCUGUAUAUCUC [C39G A64C] — higher, 0.17
- UAACAGGGGGCCACAGCAGAAGCGUUCACGUCGCAGCCGCUGUCAGAUUCUGGUGAAUCUGCGUAUUCUGCUGUAUAUCUC [C39G A64U] — higher, 0.35
- UAACAGGGGGCCACAGCAGAAGCGUUCACGUCGCAGCCGCUGUCAGAUUCUGGUGAAUCUGCGGAUUCUGCUGUAUAUCUC [C39G A64G] — higher, 0.38
- UAACAGGGGGCCACAGCAGAAGCGUUCACGUCGCAGCCGCUGUCAGAUUCUGGUGAAUCUGCGAAUUCUACUGUAUAUCUC [C39G G70A] — higher, 0.15
- UAACAGGGGGCCACAGCAGAAGCGUUCACGUCGCAGCCGCUGUCAGAUUCUGGUGAGUCUGCGAAUUCUGCUGUAUAUCUC [C39G A57G] — higher, 0.19
- UAACAGGGGGCCACAGCAGAAGCGUUCACGUCGCAGCCGCUGUCAGAUUCUGGUGAAUCUGCGAAUUCUGCUGUAUAUCAC [C39G U80A] — higher, 0.09
